Target: Siglec-7 and/or Siglec-9 on fresh purified human NK cells
Experiment: flow cytometry on fresh purified human NK cells, mean of 4 donors

EC50	Binder
0.19 µg/mL	mAb3 (antibody, human IgG1, V domains shown) VH: EVQLLETGPGLVKPSQSLSLTCTVTGYSITGGFAWNWIRQFPGNTLEWMGYIGYGGSTSYNPSLNSRISITRDTSKNHFFLQFNSVTTEDSATYYCARGDYLFAYWGQGTLVTVSA VL: DILMTQSPASLSASVGETVSITCRASGNIHNYLAWYLQRQGKSPQLLVYNAKTLADGVPSRFSGTGSGTQFSLKINSLQPEDFGSYYCQHFWSTPRTFGGGTKLEIK
0.07 µg/mL	mAb2 (antibody, human IgG1, V domains shown) VH: EVQLQESGPGLVKPSQSLSLTCTVTGYSITGGFAWNWIRQFPGNTLEWMGYIGYGGSTSYNPSLNSRISITRDTSKNHFFLQFNSVTTEDSATYYCARGDYLFAYWGQGTLVTVSA VL: DIVMTQSHKFMSTSVGDRVSITCKASQDVNTAVAWYQQKPGQSPKLLIYSASYRYTGVPDRFTGSGSGTDFTFTISSVQAEDLAVYYCQQHYSTPRTFGGGTKLEIK

The next lines start with the binder.

Binder	EC50
mAb4 (antibody, human IgG1, V domains shown) VH: DVQLVESGGDLVKPGGSLKLSCAASGFAFSSYDMSWVRQSPEKRLEWIAHIGSGGGNIYYPDTVKGRFTISRDNAKNTLYLQMRSLKSEDTAMYYCARLIFTTGFYGMDYWGQGTSVTVSS VL: DIQMTQTTSSLSASLGDRVTISCRASQDISSYLNWYQQKPDGTIKLLIYYTSRLHSGVPSRFSGSGSGTDYSLTISNLDQDDIATYFCQQGNALPWTFGGGTKLEIK	0.61 µg/mL
mAb1 (antibody, human IgG1, V domains shown) VH: DVQLQESGPGLVKPSQSLSLTCTVTGYSITGGFAWNWIRQFPGNTLEWMGYIGYGGSTSYNPSLNSRISITRDTSKNHFFLQFNSVTTDDSATYYCARGDYLFAYWGQGTLVTVSA VL: DIVMTQSHKFMSTSVGDRVSITCKASQDVNTAVAWYQQKPGQSPKLLIYSASYRYTGVPDRFTGSGSGTDFTFTISSVQAEDLAVYYCQQHYSTPRTFGGGTKLEIK	0.05 µg/mL
mAb5 (antibody, human IgG1, V domains shown) VH: EIQLQQSGPELEKPGASVKISCKASGYSFSDYNMNWVKQSNGKSLEWIGNIDPYYGATSYNQRFKGKATLTVDKSSSTAYMQLKSLTSEDSAVYYCARGDSLFAYWGHGTLVTVSA VL: DIVMTQSQEFMSTSLGDRVSVTCKASQNVGTNVAWYQQKPGQSPKALLYSASSRYSGVPDRFTGSGSGTDFTLTISNVQSEDLAEYFCQQYITYPYTFGGGTKLEIK	1.27 µg/mL
mAb6 (antibody, human IgG1, V domains shown) VH: EIQLQQSGPELEKPGASVKISCKASGYSFSDYNMNWVKQSNGKSLEWIGNIDPYYGATSYNQRFKGKATLTVDKSSSTAYMQLKSLTSEDSAVYYCARGDSLFAYWGQGTLVTVSA VL: DIVMTQSQEFMSTSLGDRVSVTCKASQNVGTNVAWYQQKPGQSPKALLYSASSRYSGVPDRFTGSGSGTDFTLTINNMQSEDLAEYFCQQYITYPYTFGGGTKLEIK	1.3 µg/mL

Source: US20200369765A1
